Patent US20210332112A1

Target: pertussis toxin (Bordetella pertussis) (UniProt P04977)
Test: ELISA, plate coated with pertussis toxin, antibody titrated, detection with goat anti-human kappa constant domain-HRP [panel C]

hu1B7-YTE extended half-life antibody
EC50 (read off the curve): 0.04 µg/mL
